Measured values published in paper PMC5818064.

Target: RBD–GFP11 (Rho-binding domain of Rhotekin fused to GFP β-strand 11) (UniProt Q8C6B2)
Test: split reporter (BiFC, NanoBiT); tripartite split-GFP; HEK_GFP1-9 cells stably expressing GFP1-9, transiently co-transfected with GFP10 and GFP11 fusions (1:1); fixed, double immunostaining with anti-GFP10 and anti-GFP11; flow cytometry, mean GFP fluorescence in the GFP10+ GFP11+ gate

Sequence of UniProt Q8C6B2 (Q8C6B2 whole entry, the tested form may be a part): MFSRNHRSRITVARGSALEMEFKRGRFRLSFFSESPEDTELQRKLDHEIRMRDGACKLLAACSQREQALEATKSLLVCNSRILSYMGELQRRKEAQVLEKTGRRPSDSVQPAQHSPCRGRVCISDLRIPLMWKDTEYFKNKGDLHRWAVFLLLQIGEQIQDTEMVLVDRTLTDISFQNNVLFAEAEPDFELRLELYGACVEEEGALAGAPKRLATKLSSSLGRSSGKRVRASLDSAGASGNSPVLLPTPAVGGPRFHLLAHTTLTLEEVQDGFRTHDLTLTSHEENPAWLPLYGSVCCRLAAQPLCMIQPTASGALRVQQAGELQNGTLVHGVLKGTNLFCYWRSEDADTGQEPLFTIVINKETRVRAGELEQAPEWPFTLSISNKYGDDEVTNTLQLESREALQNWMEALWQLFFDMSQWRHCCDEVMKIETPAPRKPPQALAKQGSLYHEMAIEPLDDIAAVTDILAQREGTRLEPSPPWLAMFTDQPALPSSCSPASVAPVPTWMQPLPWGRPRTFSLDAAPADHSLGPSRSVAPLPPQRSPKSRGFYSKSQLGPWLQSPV

GFP10–RhoA L63 (constitutively active RhoA mutant fused to GFP β-strand 10) (from UniProt P61586 1-193) (natural protein)
fold change of mean GFP fluorescence against the dominant-negative mutant: 5 fold

GFP10–RhoB L63 (constitutively active RhoB mutant fused to GFP β-strand 10) (from UniProt P62745 1-196) (natural protein)
fold change of mean GFP fluorescence against the dominant-negative mutant: 5 fold
